This is an account of results in patent publication US7001892B1, “Pharmaceutical materials and methods for their preparation and use” (Purdue Research Foundation, priority 1999, dated 2006).

For series [1] the following is noted: cited from earlier work.
The conditions of series [2]: cited from earlier work; for storage time after reconstitution: reconstituted with 0.9% benzyl alcohol.
Series [3] in a line: Level of inclusion of guest protein/peptide in host crystals (labeled-insulin/lactose crystals dissolved in PBS and analyzed by HPLC). The following applies: rhodamine-labeled glucagon in α-lactose monohydrate crystals. Format: physicochemical.
Protocol: To investigate the potential for incorporation of a biopharmaceutical into crystals of biocompatible excipients, studies were conducted using rhodamine-labeled glandular glucagon and lactose. As in the previous studies, the rhodamine label was used to facilitate the visualization of glucagon in the host crystals. Typical crystal growth conditions involved the addition of 5 volumes of a supersaturated solution of deionized α-lactose monohydrate to 1 volume of an approximately 1.5 mg/mL (approximately 300 to 400 μmole) of rhodamine-labeled glucagon in purified water. The mixed solution was allowed to stand at room temperature in a 24-well plate.
For series [4] the following is noted: vs. 2% in placebo; cited from earlier work.

Like-named read-outs stand apart in the source and are kept apart here.

As to Actimmune, the activity result in series [1] (interferon gamma-1b) is on record as “dimeric form in solution, activity or 30 million units/mg”.

For the molecule Activase, the activity in series [1] (T-PA glycoprotein) is on record as 580,000 IU/mg. For the same molecule, the “time diluted solution can be held” value in series [2] (1 mg/mL solution diluted 1:1 with 0.9% NaCl or D5W, room temperature) is 8 h. Besides, in series [2] (preserved water or addition of preservatives), the “effect of preservatives on the product” value is listed as “precipitation”.

Regarding Leukine, the specific activity result in series [1] (GM-CSF) is given as “Additional Information: Specific activity is 5 × 10^7 colony forming units per mg protein. Sargramostim”. The “storage time after reconstitution” value in series [2] (refrigerated temperatures) is less than 20 days. Further, the “reconstituted solution stable for” value in series [2] (reconstituted with sterile water, refrigerated temperatures) was less than 6 h.

On to Protropin, for which the “storage time after reconstitution” value in series [2] (refrigerated temperatures) is “stored at refrigerated temperature, the reconstituted product is good for 14 days at refrigerated”.

“rhodamine-labeled glucagon: glandular glucagon carrying a rhodamine label to visualize it in the host crystals”: in series [3], the level of inclusion result is “approximately 0.1 % (w/w)”.

B1: Actimmune (protein, UniProt P01579 24-161, looked up)
Interferon gamma: QDPYVKEAENLKKYFNAGHSDVADNGTLFLGILKNWKEESDRKIMQSQIVSFYFKLFKNFKDDQSIQKSVETIKEDMNVKFFNSNKKKRDDFEKLTNYSVTDLNVQRKAIHELIQVMAELSPAAKTGKRKRSQMLFRG
modifications: interferon gamma-1b
For the molecule B1, the injection site irritation result in series [4] is listed as “Additional Information: 14% injection site irritation vs. 2% in placebo. Cost $140 for 50 μg”.
